# Source: PMC4763187
# B1: MtAAE3 (Medicago truncatula Acyl Activating Enzyme 3; oxalyl-CoA synthetase) (Medicago truncatula) (protein)
# chain: ETATTLTGLLQSVAEKFPSRRAISVAGKFDLTHSQLHELVESAANHLISAGIKPNDVVALTFPNTIEYVIMFLAVIRVRATAAPLNAAYTSEEFEFYLSDSESKLLLTPLEGNNPAQTAATKLNIPLGSVCFNKTEEETKLSISLNQTESANSVSELINEPSDVALFLHTSGTTSRPKGVPLSQHNLVSSVRNIESVYRLSELDSTVIVLPLFHVHGLIAGLLSSLGAGGAVALPAAGRFSASTFWKDMIQYNATWYTAVPTIHQIILDRHQSNPEPVYPKLRFIRSCSASLAPVILGRLEEAFGAPVLEAYAMTEATHLMCSNPLPEDGPHKAGSVGKPVGQEMAILDESGRVLEADVNGEVCIKGENVTKGYKNNEEANKSAFLFGWFHTGDIGYFDSDGYLHLVGRIKELINRGGEKISPIEVDAVLLGHQDVAQAVAFGVPDQKYGEEIHCAIIPREGSNIDAEEVLKYCKTNLTSFKVPKKVFITDSLPKTATGKILRRLVAEHFVSQA
# Substrate: O=C(O)C(=O)O
# Experiment: purified protein
# Conditions: pH 8.0, 5 mM ATP, 0.5 mM CoA, 10 mM MgCl2, 2 mM DTT, oxalate up to 400 μM
protein,measurement,value
B1,Km,81.0 ± 8.1 µM
